Data published in publication PMC5594205 (Molecular Cell, 2017).
Where two headings read alike, the source gives them in different places.

B1: recombinant human Rad51 (natural protein, UniProt Q06609 1-339, looked up)
chain: MAMQMQLEANADTSVEEESFGPQPISRLEQCGINANDVKKLEEAGFHTVEAVAYAPKKELINIKGISEAKADKILAEAAKLVPMGFTTATEFHQRRSEIIQITTGSKELDKLLQGGIETGSITEMFGEFRTGKTQICHTLAVTCQLPIDRGGGEGKAMYIDTEGTFRPERLLAVAERYGLSGSDVLDNVAYARAFNTDHQTQLLYQASAMMVESRYALLIVDSATALYRTDYSGRGELSARQMHLARFLRMLLRLADEFGVAVVITNQVVAQVDGAAMFAADPKKPIGGNIIAHASTTRLYLRKGRGETRICKIYDSPCLPEAEAMFAINADGVGDAKD
B2: His6-MBP-Polymerase α (1-109) (domain or fragment, human, UniProt P09884 1-109, looked up)
chain: MAPVHGDDSLSDSGSFVSSRARREKKSKKGRQEALERLKKAKAGEKYKYEVEDFTGVYEEVDEEQYSKLVQARQDDDWIVDDDGIGYVEDGREIFDDDLEDDALDADEK

Experiments:
Test in all cases: pull-down
[1] = target: recombinant human Pol α-primase complex (full-length) (human, UniProt P09884 1-1462; Q14181 1-598; P49642 1-420; P49643 1-509)
[2] = target: B1
[3] = target: B1; remark: listed apart in the source

Chain of recombinant human Pol α-primase complex (full-length) (Q14181 whole entry, chain 2 of 3): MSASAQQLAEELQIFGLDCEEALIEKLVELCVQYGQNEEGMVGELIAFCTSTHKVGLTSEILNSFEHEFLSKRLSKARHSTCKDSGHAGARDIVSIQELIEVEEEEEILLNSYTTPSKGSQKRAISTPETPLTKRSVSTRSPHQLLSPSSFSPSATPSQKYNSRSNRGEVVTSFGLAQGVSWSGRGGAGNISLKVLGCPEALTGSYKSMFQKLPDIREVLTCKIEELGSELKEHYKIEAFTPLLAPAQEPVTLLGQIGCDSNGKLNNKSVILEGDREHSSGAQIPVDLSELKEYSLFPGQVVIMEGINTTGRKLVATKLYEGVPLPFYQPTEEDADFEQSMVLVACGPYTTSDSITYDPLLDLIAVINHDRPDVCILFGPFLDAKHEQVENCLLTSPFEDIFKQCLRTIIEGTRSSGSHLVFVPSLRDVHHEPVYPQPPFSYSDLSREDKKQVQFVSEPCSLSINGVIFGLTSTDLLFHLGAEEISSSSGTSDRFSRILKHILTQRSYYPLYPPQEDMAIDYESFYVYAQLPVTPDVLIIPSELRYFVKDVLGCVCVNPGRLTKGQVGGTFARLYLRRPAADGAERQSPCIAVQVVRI
Chain of recombinant human Pol α-primase complex (full-length) (P49642 whole entry, chain 3 of 3): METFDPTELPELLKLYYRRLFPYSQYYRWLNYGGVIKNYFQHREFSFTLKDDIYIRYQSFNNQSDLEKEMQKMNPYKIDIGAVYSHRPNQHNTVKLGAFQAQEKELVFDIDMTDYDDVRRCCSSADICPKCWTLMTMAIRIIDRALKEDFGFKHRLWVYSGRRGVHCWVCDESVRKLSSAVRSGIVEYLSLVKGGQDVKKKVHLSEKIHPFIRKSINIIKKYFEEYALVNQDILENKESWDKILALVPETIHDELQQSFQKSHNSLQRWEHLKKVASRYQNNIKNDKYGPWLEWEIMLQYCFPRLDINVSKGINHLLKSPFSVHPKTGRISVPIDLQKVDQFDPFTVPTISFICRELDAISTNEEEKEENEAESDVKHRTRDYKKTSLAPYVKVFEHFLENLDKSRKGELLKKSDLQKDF
Chain of recombinant human Pol α-primase complex (full-length) (P49643 whole entry, chain 4 of 3): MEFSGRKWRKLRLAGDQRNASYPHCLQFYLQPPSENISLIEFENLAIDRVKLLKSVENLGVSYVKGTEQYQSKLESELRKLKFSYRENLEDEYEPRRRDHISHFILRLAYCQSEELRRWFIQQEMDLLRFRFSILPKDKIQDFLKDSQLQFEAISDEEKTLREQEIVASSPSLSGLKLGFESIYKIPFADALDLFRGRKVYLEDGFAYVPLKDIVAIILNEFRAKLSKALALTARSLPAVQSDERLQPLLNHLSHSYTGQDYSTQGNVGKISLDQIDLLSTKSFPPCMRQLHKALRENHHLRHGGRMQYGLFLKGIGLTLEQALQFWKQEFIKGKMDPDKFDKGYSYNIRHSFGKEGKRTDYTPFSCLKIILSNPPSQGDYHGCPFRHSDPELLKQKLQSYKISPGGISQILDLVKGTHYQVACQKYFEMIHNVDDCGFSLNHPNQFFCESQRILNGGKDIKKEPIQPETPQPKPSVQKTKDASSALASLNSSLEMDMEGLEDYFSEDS

B1
binding result [1]: binds

B2
binding result [2]: binds

LLGFHTASGKKVKIAKESLDKVKNLFDE [Brca2 BRC4 peptide]
binding result [3]: binds
